Reference: patent US20090022728A1 (RINAT NEUROSCIENCE, published 2009)

How the values were obtained:
[1] = biological target: T1, biotinylated Aβ1-40 peptide (biotinylated (N-biotinylated in Example 7)); test: SPR, Fab over Aβ1-40 on SA chip; KD=koff/kon
T1 construct: captured on streptavidin (SA) chip; also called Biotinylated Aβ peptide 1-40; Aβ1-40 on SA chip
Description: (§1) Affinities of 9TL Fab fragment and its variants Fab fragments were determined by Surface Plasmon Resonance (SPR) system (BIAcore 3000™, BIAcore, Inc., Piscaway, N.J.). SA chips (streptavidin) were used according to the supplier's instructions. Biotinylated Aβ peptide 1-40 was diluted into HBS-EP (10 mM HEPES pH 7.4, 150 mM NaCl, 3 mM EDTA, 0.005% P20) and injected over the chip at a concentration of 0.005 mg/mL. Using variable flow time across the individual chip channels, two ranges of antigen density were achieved: 10-200 response units (RU) for detailed kinetic studies and 500-600 RU for concentration studies and screening. […] HBS-EP buffer was used as running buffer for all the BIAcore assays. […] The concentrations of the Fab proteins were determined by ELISA and/or SDS-PAGE electrophoresis using a standard Fab of known concentration (determined by amino acid analysis). Kinetic association rates (kₒₙ) and dissociation rates (koff) were obtained simultaneously by fitting the data to a 1:1 Langmuir binding model (Karlsson, R. Roos, H. Fagerstam, L. Petersson, B. (1994). Methods Enzymology 6. 99-110) using the BIAevaluation program. Equilibrium dissociation constant (KD) values were calculated as koff/kₒₙ.
(§2) All amino acid substitutions of the variants shown in Table 3 are described relative to the sequence of 9TL. KD and other kinetic parameters were determined by BIAcore analysis described above with Aβ₁₋₄₀ immobilized on SA chip.

[2] = biological target: T1, biotinylated Aβ1-40 peptide; test: SPR, Fab over Aβ1-40 on SA chip
Description: as §1, §2

[3] = biological target: T1, biotinylated Aβ1-40 peptide; test: SPR, Fab over Aβ1-40 on SA chip; kon may be assumed = 9TL (footnote 2)
Description: as §1, §2

T1 sequence (peptide, as listed by the source): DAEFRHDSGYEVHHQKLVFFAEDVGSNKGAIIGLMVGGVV

Row | Binder | Kd [1] [nM] | koff [2] [s⁻¹] | kon [3] [M⁻¹ s⁻¹] | kon [2] [M⁻¹ s⁻¹]
1 | 9TL variant 22-T/I Fab (Fab, V domains shown, Fab; human IgG2 CH1 and kappa CL) VH: QVQLVQSGAEVKKPGASVKVSCKASGYYTEAYYIHWVRQAPGQGLEWMGRIDPATGNTKYAPRLQDRVTMTRDTSTSTVYMELSSLRSEDTAVYYCASLYSLPVYWGQGTTVTVSS VL: DVVMTQSPLSLPVTLGQPASISCKSSQSLLYSDAKTYLNWFQQRPGQSPRRLIYQISRLDPGVPDRFSGSGSGTDFTLKISRVEAEDVGVYYCLQGTHYPVIFGQGTRLEIKR | 1.45 | 0.00046 | 318000 | –
2 | 9TL variant C6 new Fab (Fab, V domains shown, Fab; human IgG2 CH1 and kappa CL) VH: QVQLVQSGAEVKKPGASVKVSCKASGYYTEAYYIHWVRQAPGQGLEWMGRIDPATGNTKYAPRLQDRVTMTRDTSTSTVYMELSSLRSEDTAVYYCASLYSLPVYWGQGTTVTVSS VL: DVVMTQSPLSLPVTLGQPASISCKSSQSLLYSDAKTYLNWFQQRPGQSPRRLIYQISRLDPGVPDRFSGSGSGTDFTLKISRVEAEDVGVYYCLQGTHYPVTFGQGTRLEIKR | 2.58 | 0.00092 | – | 356000
3 | 9TL variant M3 Fab (Fab, V domains shown, Fab; human IgG2 CH1 and kappa CL) VH: QVQLVQSGAEVKKPGASVKVSCKASGYYTEAYYIHWVRQAPGQGLEWMGRIDPATGNTKYAPRLQDRVTMTRDTSTSTVYMELSSLRSEDTAVYYCASLYSLPVYWGQGTTVTVSS VL: DVVMTQSPLSLPVTLGQPASISCKSSQSLLYSDAKTYLNWFQQRPGQSPRRLIYQISRLDPGVPDRFSGSGSGTDFTLKISRVEAEDVGVYYCCQGTHYPVLFGQGTRLEIKR | 4.09 | 0.0013 | 318000 | –
4 | 9TL variant M9 Fab (Fab, V domains shown, Fab; human IgG2 CH1 and kappa CL) VH: QVQLVQSGAEVKKPGASVKVSCKASGYYTEAYYIHWVRQAPGQGLEWMGRIDPATGNTKYAPRLQDRVTMTRDTSTSTVYMELSSLRSEDTAVYYCASLYSLPVYWGQGTTVTVSS VL: DVVMTQSPLSLPVTLGQPASISCKSSQSLLYSDAKTYLNWFQQRPGQSPRRLIYQISRLDPGVPDRFSGSGSGTDFTLKISRVEAEDVGVYYCGQGTHYPVLFGQGTRLEIKR | 24.5 | 0.0078 | 318000 | –
5 | 9TL variant M4 Fab (Fab, V domains shown, Fab; human IgG2 CH1 and kappa CL) VH: QVQLVQSGAEVKKPGASVKVSCKASGYYTEAYYIHWVRQAPGQGLEWMGRIDPATGNTKYAPRLQDRVTMTRDTSTSTVYMELSSLRSEDTAVYYCASLYSLPVYWGQGTTVTVSS VL: DVVMTQSPLSLPVTLGQPASISCKSSQSLLYSDAKTYLNWFQQRPGQSPRRLIYQISRLDPGVPDRFSGSGSGTDFTLKISRVEAEDVGVYYCFQGTHYPVLFGQGTRLEIKR | 3.13 | 0.000995 | 318000 | –
6 | 9TL variant M2 Fab (Fab, V domains shown, Fab; human IgG2 CH1 and kappa CL) VH: QVQLVQSGAEVKKPGASVKVSCKASGYYTEAYYIHWVRQAPGQGLEWMGRIDPATGNTKYAPRLQDRVTMTRDTSTSTVYMELSSLRSEDTAVYYCASLYSLPVYWGQGTTVTVSS VL: DVVMTQSPLSLPVTLGQPASISCKSSQSLLYSDAKTYLNWFQQRPGQSPRRLIYQISRLDPGVPDRFSGSGSGTDFTLKISRVEAEDVGVYYCNQGTHYPVLFGQGTRLEIKR | 3.46 | 0.0011 | 318000 | –
7 | 9TL variant M10 Fab (Fab, V domains shown, Fab; human IgG2 CH1 and kappa CL; same printed substitution as M7) VH: QVQLVQSGAEVKKPGASVKVSCKASGYYTEAYYIHWVRQAPGQGLEWMGRIDPATGNTKYAPRLQDRVTMTRDTSTSTVYMELSSLRSEDTAVYYCASLYSLPVYWGQGTTVTVSS VL: DVVMTQSPLSLPVTLGQPASISCKSSQSLLYSDAKTYLNWFQQRPGQSPRRLIYQISRLDPGVPDRFSGSGSGTDFTLKISRVEAEDVGVYYCSQGTHYPVLFGQGTRLEIKR | 26.1 | 0.0083 | 318000 | –
8 | 9TL variant M12 Fab (Fab, V domains shown, Fab; human IgG2 CH1 and kappa CL) VH: QVQLVQSGAEVKKPGASVKVSCKASGYYTEAYYIHWVRQAPGQGLEWMGRIDPATGNTKYAPRLQDRVTMTRDTSTSTVYMELSSLRSEDTAVYYCASLYSLPVYWGQGTTVTVSS VL: DVVMTQSPLSLPVTLGQPASISCKSSQSLLYSDAKTYLNWFQQRPGQSPRRLIYQISRLDPGVPDRFSGSGSGTDFTLKISRVEAEDVGVYYCLQTTHYPVLFGQGTRLEIKR | 10.4 | 0.0033 | 318000 | –
9 | 9TL variant M8 Fab (Fab, V domains shown, Fab; human IgG2 CH1 and kappa CL) VH: QVQLVQSGAEVKKPGASVKVSCKASGYYTEAYYIHWVRQAPGQGLEWMGRIDPATGNTKYAPRLQDRVTMTRDTSTSTVYMELSSLRSEDTAVYYCASLYSLPVYWGQGTTVTVSS VL: DVVMTQSPLSLPVTLGQPASISCKSSQSLLYSDAKTYLNWFQQRPGQSPRRLIYQISRLDPGVPDRFSGSGSGTDFTLKISRVEAEDVGVYYCQQGTHYPVLFGQGTRLEIKR | 21.4 | 0.0068 | 318000 | –
10 | 9TL variant M11 Fab (Fab, V domains shown, Fab; human IgG2 CH1 and kappa CL) VH: QVQLVQSGAEVKKPGASVKVSCKASGYYTEAYYIHWVRQAPGQGLEWMGRIDPATGNTKYAPRLQDRVTMTRDTSTSTVYMELSSLRSEDTAVYYCASLYSLPVYWGQGTTVTVSS VL: DVVMTQSPLSLPVTLGQPASISCKSSQSLLYSDAKTYLNWFQQRPGQSPRRLIYQISRLDPGVPDRFSGSGSGTDFTLKISRVEAEDVGVYYCLQSTHYPVLFGQGTRLEIKR | 6.29 | 0.002 | 318000 | –
11 | 9TL variant M6 Fab (Fab, V domains shown, Fab; human IgG2 CH1 and kappa CL) VH: QVQLVQSGAEVKKPGASVKVSCKASGYYTEAYYIHWVRQAPGQGLEWMGRIDPATGNTKYAPRLQDRVTMTRDTSTSTVYMELSSLRSEDTAVYYCASLYSLPVYWGQGTTVTVSS VL: DVVMTQSPLSLPVTLGQPASISCKSSQSLLYSDAKTYLNWFQQRPGQSPRRLIYQISRLDPGVPDRFSGSGSGTDFTLKISRVEAEDVGVYYCKQGTHYPVLFGQGTRLEIKR | 12.9 | 0.0041 | 318000 | –
12 | 9TL variant M7 Fab (Fab, V domains shown, Fab; human IgG2 CH1 and kappa CL) VH: QVQLVQSGAEVKKPGASVKVSCKASGYYTEAYYIHWVRQAPGQGLEWMGRIDPATGNTKYAPRLQDRVTMTRDTSTSTVYMELSSLRSEDTAVYYCASLYSLPVYWGQGTTVTVSS VL: DVVMTQSPLSLPVTLGQPASISCKSSQSLLYSDAKTYLNWFQQRPGQSPRRLIYQISRLDPGVPDRFSGSGSGTDFTLKISRVEAEDVGVYYCSQGTHYPVLFGQGTRLEIKR | 18.9 | 0.006 | 318000 | –
13 | 9TL variant M1 Fab (Fab, V domains shown, Fab; human IgG2 CH1 and kappa CL) VH: QVQLVQSGAEVKKPGASVKVSCKASGYYTEAYYIHWVRQAPGQGLEWMGRIDPATGNTKYAPRLQDRVTMTRDTSTSTVYMELSSLRSEDTAVYYCASLYSLPVYWGQGTTVTVSS VL: DVVMTQSPLSLPVTLGQPASISCKSSQSLLYSDAKTYLNWFQQRPGQSPRRLIYQISRLDPGVPDRFSGSGSGTDFTLKISRVEAEDVGVYYCMQGTHYPVLFGQGTRLEIKR | 2.7 | 0.00086 | 318000 | –
14 | 9TL variant M13 Fab (Fab, V domains shown, Fab; human IgG2 CH1 and kappa CL) VH: QVQLVQSGAEVKKPGASVKVSCKASGYYTEAYYIHWVRQAPGQGLEWMGRIDPATGNTKYAPRLQDRVTMTRDTSTSTVYMELSSLRSEDTAVYYCASLYSLPVYWGQGTTVTVSS VL: DVVMTQSPLSLPVTLGQPASISCKSSQSLLYSDAKTYLNWFQQRPGQSPRRLIYQISRLDPGVPDRFSGSGSGTDFTLKISRVEAEDVGVYYCLQGSHYPVLFGQGTRLEIKR | 1.23 | 0.00039 | 318000 | –
